One assay concerns the target HLA-C*07:02. Description: IEDB peptide-MHC binding, purified MHC/direct/fluorescence; filed as Kd, often an IC50 or EC50 that approximates it; ≥ and ≤ were set here for values at or beyond the usual limits of such assays.
The target of assay [1] is HLA-A*02:01. Kind of assay: IEDB peptide-MHC binding, purified MHC/competitive/radioactivity; ≥ and ≤ were set here for values at or beyond the usual limits of such assays.
The target of assay [2] is HLA-A*02:01. Kind of assay: IEDB peptide-MHC binding, purified MHC/competitive/radioactivity; filed as Kd, often an IC50 or EC50 that approximates it; ≥ and ≤ were set here for values at or beyond the usual limits of such assays. The settings on record: source organism: Homo sapiens.
The target of another assay is HLA-A*24:02. Description: IEDB peptide-MHC binding, purified MHC/competitive/fluorescence; ≥ and ≤ were set here for values at or beyond the usual limits of such assays. The settings on record: source organism: Variola virus.
The target in assay [3] is HLA-B*07:02. The assay is described as above.
In assay [4] the target is HLA-A*03:01. The assay is described as above. The settings on record: source organism: Variola virus.
Assay [5] has as its target HLA-A*02:01. The description is as above.
Assay [6] deals with HLA-A*11:01. The assay is described as above. The settings on record: source organism: Variola virus.
Assay [7] addresses HLA-B*15:01. The assay is described as above.
For assay [8], the target named is HLA-C*14:02. Kind of assay: IEDB peptide-MHC binding, purified MHC/direct/fluorescence; filed as Kd, often an IC50 or EC50 that approximates it; ≥ and ≤ were set here for values at or beyond the usual limits of such assays.
Assay [9] deals with HLA-B*46:01. The description is as above. As to conditions: source organism: Dengue virus 1 Singapore/S275/1990.
The target of a further assay is HLA-B*15:02. The assay is described as above. As to conditions: source organism: dengue virus type 4.
The next assay concerns the target HLA-C*15:02. The assay is described as above. As to conditions: source organism: dengue virus type 1.
Assay [10] has as its target HLA-A*26:01. Description: IEDB peptide-MHC binding, purified MHC/competitive/radioactivity; filed as Kd, often an IC50 or EC50 that approximates it; ≥ and ≤ were set here for values at or beyond the usual limits of such assays. As to conditions: source organism: Dengue virus 1 Brazil/97-11/1997.
The next assay deals with HLA-C*06:02. Kind of assay: IEDB peptide-MHC binding, purified MHC/direct/fluorescence; filed as Kd, often an IC50 or EC50 that approximates it; ≥ and ≤ were set here for values at or beyond the usual limits of such assays. As to conditions: source organism: Escherichia coli F11.
Assay [11] concerns the target HLA-A*26:01. Kind of assay: IEDB peptide-MHC binding, purified MHC/competitive/fluorescence; filed as Kd, often an IC50 or EC50 that approximates it; ≥ and ≤ were set here for values at or beyond the usual limits of such assays.
Assay [12] concerns the target HLA-A*24:03. The assay is described as above. As to conditions: source organism: Escherichia coli F11.
The next assay has as its target HLA-A*01:01. The assay is described as above. The settings on record: source organism: Escherichia coli F11.
For assay [13], the target named is HLA-B*15:01. The assay is described as above. The settings on record: source organism: Escherichia coli F11.
Another assay deals with HLA-A*31:01. Described as above. As to conditions: source organism: Dengue virus 2 Thailand/NGS-C/1944.
Assay [14] concerns the target HLA-A*11:01. Described as above. The settings on record: source organism: Dengue virus 2 Thailand/NGS-C/1944.
In a further assay the target is HLA-C*03:03. Kind of assay: IEDB peptide-MHC binding, purified MHC/direct/fluorescence; filed as Kd, often an IC50 or EC50 that approximates it; ≥ and ≤ were set here for values at or beyond the usual limits of such assays.
In a further assay the target is HLA-A*02:12. The assay is described as above. As to conditions: source organism: Orthohantavirus andesense.
A further assay addresses HLA-A*68:02. The assay is described as above. As to conditions: source organism: Orthohantavirus andesense.
In assay [15] the target is HLA-A*03:01. The assay is described as above. As to conditions: source organism: Orthohantavirus andesense.
Another assay has as its target HLA-A*29:02. Described as above. The settings on record: source organism: Orthohantavirus andesense.
Assay [16] concerns the target HLA-A*24:03. Described as above. As to conditions: source organism: Orthohantavirus andesense.
The target in the next assay is HLA-A*02:19. Described as above. The settings on record: source organism: Orthohantavirus andesense.
Assay [17] deals with HLA-A*02:01. The assay is described as above. As to conditions: source organism: Orthohantavirus andesense.
For the next assay, the target named is HLA-B*57:01. Kind of assay: IEDB peptide-MHC binding, purified MHC/competitive/fluorescence; filed as Kd, often an IC50 or EC50 that approximates it; ≥ and ≤ were set here for values at or beyond the usual limits of such assays. The settings on record: source organism: Orthohantavirus andesense.
The target in a further assay is HLA-A*69:01. Described as above. The settings on record: source organism: Orthohantavirus andesense.
A further assay addresses HLA-B*18:01. The assay is described as above. As to conditions: source organism: Orthohantavirus andesense.
A further assay deals with HLA-B*51:01. The assay is described as above. The settings on record: source organism: Orthohantavirus andesense.
For the next assay, the target named is HLA-B*15:17. The description is as above.
For another assay, the target named is HLA-B*27:03. The description is as above.
Assay [18] concerns the target HLA-B*07:02. Description: IEDB peptide-MHC binding, purified MHC/direct/fluorescence; filed as Kd, often an IC50 or EC50 that approximates it; ≥ and ≤ were set here for values at or beyond the usual limits of such assays. The settings on record: source organism: Mus musculus.
The next assay deals with HLA-C*12:03. The description is as above. As to conditions: source organism: Rattus norvegicus.
Assay [19] deals with HLA-C*14:02. Kind of assay: IEDB peptide-MHC binding, purified MHC/competitive/fluorescence; filed as Kd, often an IC50 or EC50 that approximates it; ≥ and ≤ were set here for values at or beyond the usual limits of such assays. The settings on record: source organism: Rattus norvegicus.
In a further assay the target is HLA-B*83:01. Described as above.
The target of the next assay is HLA-B*15:42. The description is as above.
The target in a further assay is HLA-B*45:06. The description is as above.
The target of the next assay is HLA-C*05:01. Description: IEDB peptide-MHC binding, purified MHC/direct/fluorescence; filed as Kd, often an IC50 or EC50 that approximates it; ≥ and ≤ were set here for values at or beyond the usual limits of such assays. The settings on record: source organism: Mycobacterium tuberculosis str. Haarlem.
Assay [20] deals with HLA-B*46:01. Description: IEDB peptide-MHC binding, purified MHC/competitive/fluorescence; filed as Kd, often an IC50 or EC50 that approximates it; ≥ and ≤ were set here for values at or beyond the usual limits of such assays. The settings on record: source organism: Mycobacterium tuberculosis str. Haarlem.
The target of another assay is HLA-B*08:01. Description: IEDB peptide-MHC binding, purified MHC/competitive/fluorescence; ≥ and ≤ were set here for values at or beyond the usual limits of such assays. The settings on record: source organism: Zaire ebolavirus.
Setting [21] is: source organism: Escherichia coli F11.
[22] abbreviates: source organism: Zaire ebolavirus.
Setting [23] is: source organism: Orthohantavirus andesense.
Where [24] appears, read: source organism: Rattus norvegicus.
[25] abbreviates: source organism: Mycobacterium tuberculosis str. Haarlem.

The Kd is the equilibrium constant for the complex coming apart. In the assay with HLA-C*07:02 (source organism: Vaccinia virus), YRHKNYYAL returned an equilibrium dissociation constant (Kd) of 0.057 µM.
The term IC50 denotes the point on the concentration scale where inhibition reaches its midpoint. For the sequence QMVSSVTFI, the IC50 in the assay with HLA-A*02:01 [1] (source organism: Rhinovirus A) came out at 0.2 µM.
Take ARDPHSGHFV: the Kd in the assay with HLA-A*02:01 [2] was determined as 2.71 µM. Also, the IC50 with HLA-A*02:01 [1] (source organism: Homo sapiens) is at least 20 µM.
On to KVFLPNPAF, for which the IC50 in the assay with HLA-A*24:02 was 9.77 µM; with HLA-B*07:02 [3] (source organism: Variola virus), at least 143 µM; in the assay with HLA-A*03:01 [4] it was 64.8 µM; with HLA-A*02:01 [5] (source organism: Variola virus), 55.1 µM; in the assay with HLA-A*11:01 [6] it was 40.5 µM; in the assay with HLA-B*15:01 [7] (source organism: Variola virus), 21 µM.
Take RPVILSLPR: the IC50 is 15 µM with HLA-B*07:02 [3] (source organism: Variola virus), at least 187 µM with HLA-A*02:01 [5] (source organism: Variola virus) and at least 122 µM with HLA-A*11:01 [6].
Turning to SLADTNSLAV, the IC50 in the assay with HLA-A*02:01 [1] (source organism: Homo sapiens) came out at 0.0794 µM.
With YLAGAGLAF, the Kd with HLA-C*14:02 [8] (source organism: dengue virus type 1) was 0.046 µM; with HLA-B*46:01 [9] it was 0.118 µM; with HLA-B*15:02, 0.003 µM; with HLA-C*15:02 it was at least 20 µM; with HLA-A*26:01 [10], 0.401 µM.
For the sequence YTLNNGGAF, the Kd is 0.991 µM with HLA-C*07:02 (setting [21]); at least 20 µM in the assay with HLA-C*06:02; 0.0927 µM with HLA-A*26:01 [11] (setting [21]); 0.0151 µM with HLA-A*24:03 [12]; at least 20 µM with HLA-A*01:01; 0.0594 µM with HLA-B*15:01 [13].
On to GLMHNQDGL, for which the IC50 with HLA-B*07:02 [3] (setting [22]) is at least 81.9 µM; with HLA-A*02:01 [5] (setting [22]) it was 1.58 µM; with HLA-B*15:01 [7] (setting [22]), 51.6 µM.
NLYVSLLLL: the IC50 in the assay with HLA-A*02:01 [1] (source organism: Hepatitis B virus subtype ayw) was found to be 0.077 µM.
In the assay with HLA-C*14:02 [8] (source organism: Mycobacterium tuberculosis variant bovis BCG str. Pasteur 1173P2), AARIAGRHM gave a Kd of 0.654 µM.
Turning to KTFVDLMRR, the Kd amounted to 0.00102 µM with HLA-A*31:01 and 0.0123 µM with HLA-A*11:01 [14].
With YLIPSVTSL, the Kd in the assay with HLA-C*03:03 (setting [23]) is at most 0.001 µM; in the assay with HLA-A*02:12, at least 20 µM; in the assay with HLA-A*68:02 it was at least 20 µM; with HLA-A*03:01 [15] it was at least 20 µM; with HLA-A*29:02 it was at least 20 µM; with HLA-A*24:03 [16], at least 20 µM. Moreover, the Kd was at least 20 µM with HLA-A*02:19; 0.0018 µM with HLA-A*02:01 [17]; at least 20 µM in the assay with HLA-A*26:01 [11] (setting [23]); at least 20 µM with HLA-B*57:01; at least 20 µM with HLA-A*69:01; at least 20 µM with HLA-B*18:01. For the same sequence, the Kd in the assay with HLA-B*51:01, with HLA-B*15:17 (setting [23]) and with HLA-B*27:03 (setting [23]) was at least 20 µM throughout.
As to FLRKNQRAL, the Kd was 0.0009 µM with HLA-B*07:02 [18]; 0.383 µM with HLA-C*12:03; 0.052 µM with HLA-C*03:03 (setting [24]); 0.0129 µM in the assay with HLA-C*14:02 [19]; at least 5 µM in the assay with HLA-B*83:01 (setting [24]); at least 5 µM in the assay with HLA-B*15:42 (setting [24]). Moreover, the Kd was at least 5 µM with HLA-B*45:06 (setting [24]), at least 20 µM with HLA-B*15:17 (setting [24]) and at least 20 µM in the assay with HLA-B*27:03 (setting [24]).
Take YAREAGIAM: the Kd is at least 20 µM with HLA-C*03:03 (setting [25]); at least 20 µM in the assay with HLA-C*05:01; at least 20 µM with HLA-B*46:01 [20]; at least 5 µM with HLA-B*83:01 (setting [25]); at least 5 µM in the assay with HLA-B*15:42 (setting [25]); at least 5 µM with HLA-B*45:06 (setting [25]).
For GGRRTRREA, the IC50 with HLA-B*07:02 [3] (setting [22]) was at least 120 µM; with HLA-B*08:01 it was at least 223 µM.

The values above are taken from the Immune Epitope Database (IEDB).
